B1: Chromosome two open reading frame 66 (protein microarray) (natural protein, human, UniProt Q6UXQ4 39-117, looked up)
chain: ATVRNEDKWKPLNNPRNRDLFFRRLQAYFKGRGLDLGTFPNPFPTNENPRPLSFQSELTASASADYEEQKNSFHNYLKG
notes: human C2orf66, recombinant soluble protein; also called C2orf66; source: recombinant soluble protein produced at GNF, spotted on the microarray
B2: Stathmin 2 (protein microarray) (natural protein, human, UniProt Q93045-2 1-187, looked up)
chain: MAKTAMAYKEKMKELSMLSLICSCFYPEPRNINIYTYDDMEVKQINKRASGQAFELILKPPSPISEAPRTLASPKKKDLSLEEIQKKLEAAEERRKSQEAQVLKQLAEKREHEREVLQKALEENNNFSKMAEEKLILKMEQIKENREANLAAIIERLQEKLVKFISSELKESIESQFLELQREGEKQ
notes: human stathmin 2, recombinant soluble protein; also called STMN2; source: recombinant soluble protein produced at GNF, spotted on the microarray

Target: T1, recombinant soluble NadA (NadA_(24–350)) (Neisseria meningitidis strain 2996, UniProt Q8KH85 24-350)
T1 construct: Neisserial adhesin A (NadA) variant 3, N. meningitidis strain 2996, residues 24-350: ectodomain without the leader peptide and the anchor domain; Heated at 80°C for 2 h (thermally stressed, monomeric) in one SPR experiment; also called rNadA; NadA ectodomain
Test: peptide or protein array; recombinant soluble human and mouse proteins spotted; rNadA_(24–350) 1 µM in Nap-PBS overlaid for 1 h; rabbit anti-NadA serum and AlexaFluor 647 anti-rabbit IgG; MFI ≥ 30,000 high reactivity, MFI < 5,000 no reactivity
Details: both partners purified

Binder	binding result
B1	binds
B2	binds

— paper PMC11323535, “Neisserial adhesin A (NadA) binds human Siglec-5 and Siglec-14 with high affinity and promotes bacterial adhesion/invasion” (mBio, 2024)
